For orientation: Kd means the equilibrium constant for the complex coming apart. The koff is the first-order rate constant of dissociation. A high value points to a short-lived complex. One may read the kon as a measure of how fast the partners come together. High values mean faster complex formation, low ones slower complex formation.

The target of the experiment is Staphylococcus aureus alpha-hemolysin (Staphylococcus aureus, UniProt P09616).
Chain of Staphylococcus aureus alpha-hemolysin (P09616 27-319 limits assumed): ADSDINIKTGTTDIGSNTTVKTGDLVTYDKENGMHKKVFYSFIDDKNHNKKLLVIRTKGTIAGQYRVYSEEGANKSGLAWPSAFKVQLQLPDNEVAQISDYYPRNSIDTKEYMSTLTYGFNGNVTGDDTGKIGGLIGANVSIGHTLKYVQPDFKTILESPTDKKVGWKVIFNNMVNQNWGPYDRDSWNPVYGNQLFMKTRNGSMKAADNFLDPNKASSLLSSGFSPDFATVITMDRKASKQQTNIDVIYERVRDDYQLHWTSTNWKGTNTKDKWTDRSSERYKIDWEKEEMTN

B1: CAN24G4 monoclonal antibody (antibody, V domains shown)
VH: EVHLQQSGAELVKPGASVRLSCTGSGLDIKDTYIHWVKKRPEQGLEWIGRIDPANGITKYDPKFQGKATVTADTSSNTAYLQFSSLTSEDSAVYYCSSEYYPYPMDYWGQGTSVTVSS
VL: DIKMTQPPSSMYASLGERVTVTCKASQDISSFLTWFQQKPGKSPKILIYRANRVVDGVPSRFSGSGSGHDYSLTISSLESEDMGIYYCLQYDEFPWTFGGGTKLEIK
For B1, the Kd worked out at 9.4 nM, the koff was found to be 0.004 s⁻¹ and the kon is 430000 M⁻¹ s⁻¹.
